Positions count from the first letter of the chain named. Names and notes keep the numbering of the source. Where no end group is shown, it is not given here.
T1: epitope peptide Cys-CE3C long (also: biotin label, site not given here)
T1 peptide: CSVNVDKQPKYEYSL

B1: humanized 15H11 CDR graft IGKV1-39 / IGHV1-2 (R94P) (antibody, human IgG4 S228P, kappa, V domains shown)
VH: QVQLVQSGAEVKKPGASVKVSCKASGYTFTDYNMHWVRQAPGQGLEWMGRINPKNGVINSNEKFKDRVTMTRDTSISTAYMELSRLRSDDTAVYYCAPSYYGGNTDAYWGQGTLVTVSS
VL: DIQMTQSPSSLSASVGDRVTITCRASESVDNYGISFMNWYQQKPGKAPKLLIYAASSQGSGVPSRFSGSGSGTDFTLTISSLQPEDFATYYCQQSKEFPWTFGGGTKVEIKR
notes: hIgG4Pro/hIgK
B2: humanized 15H11 CDR graft IGKV1-39 / IGHV1-2 (antibody, human IgG4 S228P, kappa, V domains shown)
VH: B1 VH with P98R
VL: B1 VL
notes: hIgG4Pro/hIgK
B3: humanized 15H11 CDR graft IGKV1-39 / IGHV1-3 (R94P) (antibody, human IgG4 S228P, kappa, V domains shown)
VH: B1 VH with G44R, M70I, I76A, R85S, D89E
VL: B1 VL
notes: hIgG4Pro/hIgK
B4: humanized 15H11 CDR graft IGKV1-39 / IGHV1-18 (R94P) (antibody, human IgG4 S228P, kappa, V domains shown)
VH: B1 VH with R72T, I76T, S84R, R85S
VL: B1 VL
notes: hIgG4Pro/hIgK
B5: humanized 15H11 CDR graft IGKV1-39 / IGHV1-46 (R94P) (antibody, human IgG4 S228P, kappa, V domains shown)
VH: B1 VH with I76T, A79V, R85S, D89E
VL: B1 VL
notes: hIgG4Pro/hIgK
B6: h15H11-21 (antibody, human IgG4 S228P, kappa, V domains shown)
VH: QVQLVQSGSELKKPGASVKVSCKASGYTFTEYNMHWVRQAPGRSLEWMGRINPKNGVILSNEKFKDRFVFSLDTSVSTAYLQISSLKAEDTAVYYCAPSYYGGNTDAYWGQGTLVTVSS
VL: DIVLTQSPASLAVSPGQRATITCRASDSVDNYGISFLNWFQQKPGQPPKLLIYAASSQGSGVPARFSGSGSGTDFTLTINPMEANDTANYYCQQSKEFPWTFGGGTKVEIKR
notes: hIgG4Pro/hIgK
B7: h15H11-22 (antibody, human IgG4 S228P, kappa, V domains shown)
VH: B6 VH with L59N, N104D
VL: B6 VL with D27E, L37M
notes: hIgG4Pro/hIgK
B8: h15H11-23 (antibody, human IgG4 S228P, kappa, V domains shown)
VH: B6 VH with L59N, T105S
VL: B6 VL
notes: hIgG4Pro/hIgK
B9: h15H11-24 (antibody, human IgG4 S228P, kappa, V domains shown)
VH: B6 VH with L59Q, T105S
VL: B6 VL
notes: hIgG4Pro/hIgK
B10: h15H11-25 (antibody, human IgG4 S228P, kappa, V domains shown)
VH: B6 VH
VL: B6 VL with D27E, L37M
notes: hIgG4Pro/hIgK
B11: h15H11-26 (antibody, human IgG4 S228P, kappa, V domains shown)
VH: B6 VH with E31D, L59N, N104D
VL: B6 VL with A25V
notes: hIgG4Pro/hIgK
B12: h15H11-27 (antibody, human IgG4 S228P, kappa, V domains shown)
VH: B6 VH with E31D
VL: B6 VL with A25V
notes: hIgG4Pro/hIgK
B13: h15H11-28 (antibody, human IgG4 S228P, kappa, V domains shown)
VH: B6 VH with L59N, T105S
VL: B6 VL with D27E, L37M
notes: hIgG4Pro/hIgK
B14: h15H11-29 (antibody, human IgG4 S228P, kappa, V domains shown)
VH: B6 VH with E31D
VL: B6 VL with D27E, L37M
notes: hIgG4Pro/hIgK
B15: h15H11-30 (antibody, human IgG4 S228P, kappa, V domains shown)
VH: B6 VH with E31D, L59N, N104D
VL: B6 VL
notes: hIgG4Pro/hIgK
B16: h15H11-31 (antibody, human IgG4 S228P, kappa, V domains shown)
VH: B6 VH with L59Q, T105S
VL: B6 VL with D27E, L37M
notes: hIgG4Pro/hIgK
B17: h15H11-32 (antibody, human IgG4 S228P, kappa, V domains shown)
VH: B6 VH with L59N, T105S
VL: B6 VL with A25V
notes: hIgG4Pro/hIgK
B18: h15H11-33 (antibody, human IgG4 S228P, kappa, V domains shown)
VH: B6 VH with E31D, L59Q, T105S
VL: B6 VL
notes: hIgG4Pro/hIgK
B19: h15H11-34 (antibody, human IgG4 S228P, kappa, V domains shown)
VH: B6 VH with L59N, Y101F, N104Q, T105S
VL: B6 VL
notes: hIgG4Pro/hIgK
B20: h15H11-35 (antibody, human IgG4 S228P, kappa, V domains shown)
VH: B6 VH with E31D, L59N, T105Q
VL: B6 VL
notes: hIgG4Pro/hIgK
B21: h15H11-36 (antibody, human IgG4 S228P, kappa, V domains shown)
VH: B6 VH with E31D, L59N, S60L
VL: B6 VL
notes: hIgG4Pro/hIgK
B22: h15H11-37 (antibody, human IgG4 S228P, kappa, V domains shown)
VH: B6 VH with E31D, L59N, T105Q
VL: B6 VL with A25V
notes: hIgG4Pro/hIgK
B23: h15H11-38 (antibody, human IgG4 S228P, kappa, V domains shown)
VH: B6 VH with E31D, L59K
VL: B6 VL with A25V
notes: hIgG4Pro/hIgK
B24: h15H11-39 (antibody, human IgG4 S228P, kappa, V domains shown)
VH: B6 VH with E31D, L59N, S60Y
VL: B6 VL
notes: hIgG4Pro/hIgK
B25: h15H11-40 (antibody, human IgG4 S228P, kappa, V domains shown)
VH: B6 VH with E31D, L59N, S60L
VL: B6 VL with A25V
notes: hIgG4Pro/hIgK
B26: h15H11-41 (antibody, human IgG4 S228P, kappa, V domains shown)
VH: B6 VH with E31D, L59N, Y101F, T105S
VL: B6 VL
notes: hIgG4Pro/hIgK
B27: h15H11-42 (antibody, human IgG4 S228P, kappa, V domains shown)
VH: B6 VH with E31D, L59N, N104K
VL: B6 VL with D27E, L37M
notes: hIgG4Pro/hIgK
B28: h15H11-43 (antibody, human IgG4 S228P, kappa, V domains shown)
VH: B6 VH with E31D, L59N
VL: B6 VL with D27E, I34F, L37M
notes: hIgG4Pro/hIgK
B29: humanized 15H11 CDR graft IGKV7-3 / IGHV7-4-1 (R94P) (antibody, human IgG4 S228P, kappa, V domains shown)
VH: B6 VH with E31D, R43Q, S44G, L59N
VL: B6 VL with D27E, L37M, F40Y, M82V
notes: hIgG4Pro/hIgK
B30: humanized 15H11 CDR graft IGKV1-39 / IGHV7-4-1 (R94P) (antibody, human IgG4 S228P, kappa, V domains shown)
VH: B6 VH with E31D, R43Q, S44G, L59N
VL: B1 VL
notes: hIgG4Pro/hIgK

Columns and labels:
[1] = target: T1, epitope peptide Cys-CE3C long; test: ELISA, supernatant IgG on anti-human IgG plate, biotin-peptide + streptavidin-HRP; titer per unit IgG
Description: The amount of IgG in the supernatant was determined by the following method. To evaluate the amount of IgG in the supernatant, the culture supernatant was added to an anti-human IgG antibody (manufactured by Jackson) immobilized plate, after reacting at room temperature for 3 hours, washed twice with ELISA wash buffer, and HRP-labeled anti-human IgG antibody (manufactured by Jackson) was reacted at 4° C. overnight. After washing twice with ELISA wash buffer and developing color by adding TMB-Substrate Chromogen (manufactured by Thermo Fisher Scientific), the reaction was stopped with an equal volume of 0.5N sulfuric acid, and the absorbance at 450 nm was measured to calculate (A) the dilution factor of the culture supernatant at which the OD was 1.0.
The titer of IgG in the supernatant against the epitope peptide was determined by the following method. In order to evaluate the titer of IgG in the supernatant against epitope peptides, the culture supernatant was added to an anti-human IgG antibody (manufactured by Jackson) immobilized plate, reacted for 3 hours at room temperature, and then washed twice with ELISA wash buffer, and a biotin-labeled epitope peptide (Cys-CE3C long: SEQ ID NO: 13) and Streptavidin-HRP (manufactured by PIERCE) were added and reacted overnight at 4° C. After washing twice with ELISA wash buffer and developing color by adding TMB-Substrate Chromogen (manufactured by Thermo Fisher Scientific), the reaction was stopped with an equal volume of 0.5N sulfuric acid, the absorbance at 450 nm was measured to calculate (B) the dilution ratio of the culture supernatant at which the OD was 1.0.
The titer (ratio) against the epitope peptide (Cys-CE3C long: SEQ ID NO: 13) per unit IgG amount was calculated as (B)/(A).

[2] = target: T1, epitope peptide Cys-CE3C long; test: competitive ELISA, unlabeled vs biotin-labeled peptide, antibody on anti-human IgG plate
Description: A diluted solution of the obtained recombinant humanized antibody, a biotin-labeled immunogen peptide, and Streptavidin-HRP (manufactured by PIERCE) were added to an anti-human IgG antibody-immobilized plate, and reacted overnight at 4° C. […] Next, a recombinant human antibody at the dilution rate, a biotin-labeled immunogen peptide, and Streptavidin-HRP (manufactured by PIERCE) were added. At the same time, a dilution series of unlabeled immunogenic peptide was added and reacted overnight at 4° C. After washing twice with ELISA wash buffer, TMB-Substrate Chromogen (manufactured by Thermo Fisher Scientific) was added to develop color, the reaction was stopped with an equal amount of 0.5N sulfuric acid, and the absorbance at 450 nm was measured. The concentration of the unlabeled peptide which attenuated the signal of the biotin-labeled peptide by half was defined as the affinity (IC50).

Row | Binder | (B)/(A) titer (ratio) against the epitope peptide per unit IgG amount [1] | IC50 [2]
1 | B1 | 0.14 | –
2 | B2 | 0.03 | –
3 | B3 | 0.12 | –
4 | B4 | 0.13 | –
5 | B5 | 0.09 | –
6 | B6 | – | 0.8 nM
7 | B7 | – | 0.8 nM
8 | B8 | – | 0.83 nM
9 | B9 | – | 0.85 nM
10 | B10 | – | 0.86 nM
11 | B11 | – | 0.88 nM
12 | B12 | – | 0.91 nM
13 | B13 | – | 0.91 nM
14 | B14 | – | 0.91 nM
15 | B15 | – | 0.92 nM
16 | B16 | – | 0.93 nM
17 | B17 | – | 0.95 nM
18 | B18 | – | 0.98 nM
19 | B19 | – | 0.99 nM
20 | B20 | – | 1 nM
21 | B21 | – | 1.02 nM
22 | B22 | – | 1.04 nM
23 | B23 | – | 1.04 nM
24 | B24 | – | 1.05 nM
25 | B25 | – | 1.06 nM
26 | B26 | – | 1.07 nM
27 | B27 | – | 0.83 nM
28 | B28 | – | 0.83 nM
29 | B29 | 0.26 | –
30 | B30 | 0.16 | –
